This note sets out measurements from patent US5668264.

In this data set the target is PDGF AB (Homo sapiens) (UniProt P04085+P01127). The experiment in a line: filter. Conditions: 2'-F on all C and U; random starting pool.
Chain of PDGF AB (Homo sapiens) (P01127 82-190, chain 2 of 2, other chains not shown): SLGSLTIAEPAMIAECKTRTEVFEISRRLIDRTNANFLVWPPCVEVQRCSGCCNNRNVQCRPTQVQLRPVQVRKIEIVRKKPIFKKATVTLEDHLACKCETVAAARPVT

On to “GGGAGACAAGAAUAACGCUCAANNNNNNNNNNNNNNNNNNNNNNNNNNNNNNNNNNNNNNNNNNNNNNNNNNUUCGACAGGAGGCUCACAACAGGC [random 2'-F pyrimidine RNA pool (50N)]”, for which the dissociation constant (Kd) amounted to 35 nM.

As a reminder, the Kd is a measure of binding affinity in units of concentration. Read a high Kd as a looser complex.
